According to publication PMC3548793:
Substitutions are numbered along the chain they refer to. In names and notes the source's numbering stands. Blank lines part the entries; values can stand above or below the binder they belong to.

How the values were obtained:
[1] = target: GFP-tagged Sec23, Q15436; assay: co-immunoprecipitation (anti-GFP beads) and western blotting, mean of three experiments; conditions: chain shown with the change; HEK293 cells co-transfected; parent: est. 1.0; read off a plot
GFP-tagged Sec23, Q15436, sequence (Q15436 whole entry): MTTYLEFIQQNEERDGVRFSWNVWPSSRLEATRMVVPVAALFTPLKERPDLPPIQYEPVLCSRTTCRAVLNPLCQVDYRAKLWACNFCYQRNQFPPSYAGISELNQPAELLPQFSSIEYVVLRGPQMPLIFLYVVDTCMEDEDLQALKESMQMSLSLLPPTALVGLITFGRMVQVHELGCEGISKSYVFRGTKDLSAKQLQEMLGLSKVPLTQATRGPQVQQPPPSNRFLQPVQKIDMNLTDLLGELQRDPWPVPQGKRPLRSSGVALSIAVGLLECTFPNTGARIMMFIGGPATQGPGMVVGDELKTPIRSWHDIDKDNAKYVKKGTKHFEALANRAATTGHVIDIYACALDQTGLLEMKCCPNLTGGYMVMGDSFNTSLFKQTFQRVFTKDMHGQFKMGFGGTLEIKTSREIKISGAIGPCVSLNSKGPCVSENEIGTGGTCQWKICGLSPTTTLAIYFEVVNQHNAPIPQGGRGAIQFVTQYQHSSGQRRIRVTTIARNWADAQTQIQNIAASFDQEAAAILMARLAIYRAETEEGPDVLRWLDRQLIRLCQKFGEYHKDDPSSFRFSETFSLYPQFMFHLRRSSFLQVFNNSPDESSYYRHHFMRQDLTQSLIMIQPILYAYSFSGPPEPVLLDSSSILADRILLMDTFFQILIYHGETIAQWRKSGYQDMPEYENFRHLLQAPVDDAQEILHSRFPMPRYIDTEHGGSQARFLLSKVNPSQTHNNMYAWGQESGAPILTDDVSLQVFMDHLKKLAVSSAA

[2] = target: T1, GFP-Sec13, P55735; assay: co-immunoprecipitation and western blotting; conditions: chain shown with the change;; parent: 0.8
T1 chain: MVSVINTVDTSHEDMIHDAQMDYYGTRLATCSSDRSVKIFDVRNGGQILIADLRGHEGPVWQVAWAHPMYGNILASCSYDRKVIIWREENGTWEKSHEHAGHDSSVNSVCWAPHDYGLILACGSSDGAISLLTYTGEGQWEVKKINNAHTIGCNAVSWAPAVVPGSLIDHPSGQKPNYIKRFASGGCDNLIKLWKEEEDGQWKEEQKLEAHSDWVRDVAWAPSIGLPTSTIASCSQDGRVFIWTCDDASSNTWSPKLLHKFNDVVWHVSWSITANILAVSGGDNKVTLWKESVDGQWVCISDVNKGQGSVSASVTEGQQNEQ

[3] = target: GFP-tagged Sec23, Q15436; assay: co-immunoprecipitation (anti-GFP beads) and western blotting, single blot quantified; conditions: chain shown with the change; HEK293 cells co-transfected; parent: 1

ratio to parent [1]: 1.5
other: normalized ratio of co-IP'ed Sec31 [2]: 1
ratio to parent [3]: 1.4
B2: FLAG-tagged wild type (WT) Sec31, O94979 S799A (protein)
chain: MKLKEVDRTAMQAWSPAQNHPIYLATGTSAQQLDATFSTNASLEIFELDLSDPSLDMKSCATFSSSHRYHKLIWGPYKMDSKGDVSGVLIAGGENGNIILYDPSKIIAGDKEVVIAQNDKHTGPVRALDVNIFQTNLVASGANESEIYIWDLNNFATPMTPGAKTQPPEDISCIAWNRQVQHILASASPSGRATVWDLRKNEPIIKVSDHSNRMHCSGLAWHPDVATQMVLASEDDRLPVIQMWDLRFASSPLRVLENHARGILAIAWSMADPELLLSCGKDAKILCSNPNTGEVLYELPTNTQWCFDIQWCPRNPAVLSAASFDGRISVYSIMGGSTDGLRQKQVDKLSSSFGNLDPFGTGQPLPPLQIPQQTAQHSIVLPLKKPPKWIRRPVGASFSFGGKLVTFENVRMPSHQGAEQQQQQHHVFISQVVTEKEFLSRSDQLQQAVQSQGFINYCQKKIDASQTEFEKNVWSFLKVNFEDDSRGKYLELLGYRKEDLGKKIALALNKVDGANVALKDSDQVAQSDGEESPAAEEQLLGEHIKEEKEESEFLPSSGGTFNISVSGDIDGLITQALLTGNFESAVDLCLHDNRMADAIILAIAGGQELLARTQKKYFAKSQSKITRLITAVVMKNWKEIVESCDLKNWREALAAVLTYAKPDEFSALCDLLGTRLENEGDSLLQTQACLCYICAGNVEKLVACWTKAQDGSHPLSLQDLIEKVVILRKAVQLTQAMDTSTVGVLLAAKMSQYANLLAAQGSIAAALAFLPDNTNQPNIMQLRDRLCRAQGEPVAGHEAPKIPYEKQQLPKGRPGPVAGHHQMPRVQTQQYYPHGENPPPPGFIMHGNVNPNAAGQLPTSPGHMHTQVPPYPQPQPYQPAQPYPFGTGGSAMYRPQQPVAPPTSNAYPNTPYISSASSYTGQSQLYAAQHQASSPTSSPATSFPPPPSSGASFQHGGPGAPPSSSAYALPPGTTGTLPAASELPASQRTGPQNGWNDPPALNRVPKKKKMPENFMPPVPITSPIMNPLGDPQSQMLQQQPSAPVPLSSQSSFPQPHLPGGQPFHGVQQPLGQTGMPPSFSKPNIEGAPGAPIGNTFQHVQSLPTKKITKKPIPDEHLILKTTFEDLIQRCLSSATDPQTKRKLDDASKRLEFLYDKLREQTLSPTITSGLHNIARSIETRNYSEGLTMHTHIVSTSNFSETSAFMPVLKVVLTQANKLGV

ratio to parent [1]: 2.3
other: normalized ratio of co-IP'ed Sec31 [2]: 1.4
ratio to parent [3]: 2.3
B4: FLAG-tagged wild type (WT) Sec31, O94979 S527A; S799A; T1165A (protein)
chain: B2 chain with S527A, T1165A

Continued, binder first:

B1: FLAG-tagged wild type (WT) Sec31, O94979 S527A (protein)
chain: B2 chain with S527A, A799S
ratio to parent [1]: 0.9
other: normalized ratio of co-IP'ed Sec31 [2]: 1
ratio to parent [3]: 1

B3: FLAG-tagged wild type (WT) Sec31, O94979 S527A; S799A (protein)
chain: B2 chain with S527A
other: normalized ratio of co-IP'ed Sec31 [2]: 1.2
